The values that follow come from the DeepSol protein solubility set.

The nature of the data set: soluble on expression in E. coli; label from the status in PepcDB or PDB records.
“MGSDKIHHHHHHMFTTQIHLKVLAMMLLCGLLNACSQTPQQCSSAIITTWSSAHSQITQDITTLSSTEFQGRKTDSEGARLTQAYLITRFTEMGLQPWQPNFAVPFSFQHQFSTVSGVNIIATIAAKTRSNRWRVITAHYDHLGQTANKMYPGADDNASGIAGMMAIAAQWQENPPLDDVNLMIVATDAEEPGLYGSYALVTLLQQYPLMDIELSVNLDMIGHPDRRRAIYMEGQKNLSNFESIKPLLMQQTQLCIRTHHTNLLSGRMKKSDWLRASDHYPFHKAGYSWVYFGVPPHAQYHTADDTIATLDIDFIVAVAETVYQMLSIDKLTKAP”: the “soluble on expression in E. coli” value is “not soluble”.
On to “MEFNLSALGSAPAAEETYDVVIIGGGPAGLTAGIYAGRAQLKTVIVEKGLPGGQIAQTDEVENYPGFPEGISGPELASRMVRQAEKFGARIVMDEVLGLEKAEGGYLVRGYERNYRARAVIVATGANPRRLGVPGEDKFYGRGVSTCATCDGFFYRDKEVVVVGGGDAAVEEGIFLTKFARKVTLVHRRDELRANKVAQKRAFQNPKMHFLFSHVVTEILGEDQVTGVRLKNLKTGEEYVYPTDGVFVFIGHEPNTAFLKGVVELRPDGYIAVRDEVFTSEPGIFAAGDVADPIYRQLTTSVGAGTRAAMMAERYLAEEAEKVKG”, for which the “soluble on expression in E. coli” value is “soluble”.
Regarding “MGPNHPCGYLPGRDARFTYVSPAYPLSPQSYRGLLEEGFRRSGNWVYRPCCIGCSACLPVRLPVHDFRLTRSHRRVIKRNADIDIRVSVARFDERQFQLYVRYLAARHPLEHHHHHH”, the “soluble on expression in E. coli” value was “not soluble”.
In the case of “MGSSHHHHHHSSGRENLYFQGHMAQLYFYYSAMNAGKSTALLQSSYNYQERGMRTVVYTAEIDDRFGAGKVSSRIGLSSPAKLFNQNSSLFDEIRAEHEQQAIHCVLVDECQFLTRQQVYELSEVVDQLDIPVLCYGLRTDFRGELFIGSQYLLAWSDKLVELKTICFCGRKASMVLRLDQAGRPYNEGEQVVIGGNERYVSVCRKHYKEALQVDSLTAIQERHRHD”, the “soluble on expression in E. coli” value is “soluble”.
In the case of “MAYATVEDMVARFGELEVLQLTDRNNEGLIDREVAQTALVDATAEIDAYLGRFRRPFEDLPPILVRLCCDIARYRLTAAQGVLITDEIRNRYKIDVLDLLRAMAKGEVQLGVDDSGEEVAAGEDGIVFVNGKNKVFGRDH”, the “soluble on expression in E. coli” value is given as “not soluble”.
Next, “MIADDPHLELRLAASERDLRAAQRLRYTVFVEELGGDGDLVDHAERLERDEFDDLCDHLLLIDRRRDAAALEDVVGVYRLLPGERAAGAGRFYCDSEYDLDPLRASGRRVLELGRSCVHPDYRGGAAVFLLWSGLADYALAQRTELLFGVASFHGTDIEALAEPLSYLHAFHLAPEELRVRARSEGGQRMDLIPPERIDRRAAMLAMPPLIKAYLRLGGVVGEGAWIDRAFNTTDVCLLMDTARMSARHRDFYARRTVSAE”: “not soluble”; “ALVELKVPDIGGHENVDIIAVEVNVGDTIAVDDTLITLETDKATMDVPAEVAGVVKEVKVKVGDKISEGGLIVVVEAEGTA”: “soluble”.
On to “YDSEVIEYAKEQENIISKLEYRVYKHDDGRSVNRQDLMRDYARVLYSSSFRRLQGKMQLLGVDASKFNRNRLTHSLEVAQIARSIAYDLELNHTVVAETASLAHDIGNPPFGHYGEVVLNDLSLACGGYEGNAQAFRILRTLEKKHYAYPGLNLNVRTLMAITKYFFNKHQNNKKFLYDADYEFLKTELDSKGVTVTKSIDAEIMDLADEIAYAAHDLEDALSFGMISLGEIVHEFSISDKFKDAYPTMTDIAKEAQNVAMKASRSGTSEEYAIVLKKELTSMIVNILCSDIGLVDGCLGYKRHAKLAEGLKKLLFKAILRKKDIQLYERRGEQIIRGLFEVYSDEKYNKDNMLLPPELRAINDCKTRLVTDYISGMMDSYAAQEYEKYFGKGSADKLYFK”, for which the “soluble on expression in E. coli” value is on record as “soluble”.
Next, “MGSDKIHHHHHHMRTIEDDAALKILADVIKIPSVNDHELTVAKYLQDLLAKYDISAKIHPITGDRANLVAEIGHGQPVLAVSGHMDVVAAGDLAAWDTDPFTLVEKSGQLFGRGVTDMKAGLVALVVAMINIQQQGGPKHGTIRLLATMGEEVGEAGSAAFYQQGAMQDAAGLLIAEPSTVYGTAAEQKGSCDLKLTSKGKAVHSSTPERGYNALVPLIKLLNEANDYFETIPAGEMGPVRFNIDVLNGGDQVNSLPDLATALVNVRTIPEYDNDQVTQKLADLIAAYNQQGADIKMTAIMNESPIATTADNRLVKLVQAIGKPYAGRDVVVASSPGITDASNLAKRQPADFPFAVYGPGNMTQHQVNESLPKQMFYDFIAIYQQLFTRFLAE”: “not soluble”.
The entry for “MTQIIKIDPLNPEIDKIKIAADVIRNGGTVAFPTETVYGLGANAFDGNACLKIFQAKNRPVDNPLIVHIADFNQLFEVAKDIPDKVLEIAQIVWPGPLTFVLKKTERVPKEVTAGLDTVAVRMPAHPIALQLIRESGVPIAAPSANLATRPSPTKAEDVIVDLNGRVDVIIDGGHTFFGVESTIINVTVEPPVLLRPGPFTIEELKKLFGEIVIPEFAQGKKEAEIALAPGMKYKHYAPNTRLLLVENRNIFKDVVSLLSKKYKVALLIPKELSKEFEGLQQIILGSDENLYEVARNLFDSFRELDKLNVDLGIMIGFPERGIGFAIMNRARKASGFSIIKAISDVYKYVNI” is “soluble”; for “MKVLDSRDFAKVKAIAIERASYRNIGALAVYIGSMTGMRISEVLALTWPDIDTKLCVIHVTRSWDHLYGTGFKPTKTDSSVRDIEISPSVIELLNKIHQEQAASYLRTGYRDEDQMIMRDPRHNVITDSACNKALHVIQNKAGIPEDKQITFHGLRHSHVSYLISKGVDIYYISKRLGHSDVTITMKVYGHLLEHHHHHH” it is “soluble”; for “MQYKLILNGKTLKGETTTEAVDAATAEKVFKQYANDNGVDGEWTYDDATKTFTVTEGSHHHHHHMHRDSCPLDCKVYVGNLGNNGNKTELERAFGYYGPLRSVWVARNPPGFAFVEFEDPRDAADAVRELDGRTLCGCRVRVELSNGEKR” it is “soluble”.
For “MGSDKIHHHHHHVKDGFDLVDTGDPFDTITPVIPISDRPRSQSVVAGTLNDPYRRQAVADARSLWRKSIPGSRGVVAAYLASQGIQLDEIPANLRFVLDHPYMKKSGGLYHELHRGPCVLGGIFSEAGQLLGVNQIWVDPKPPHGRASIQMDGDHMPAEIVRGSCKGGFLPLVWPEAATALVVARSLEAALRAYASRPSGLEDAAYWAVVDLKVMSGKMQRQKGVRYSGLPDLSDDTSFVAPHWVKRLVFLQEDDRTGTRQKLESGLKRSMHVRPGLRASIVRIGSAAKGGV”, the “soluble on expression in E. coli” value is listed as “not soluble”.
“MYFIGCGYNAFPVGSEYADFPHMDDKHKDREIRKFRYIIHAEQNALTFRCQDIKPEEHSMIFVTKCPCDECVPLIKGAGIKQIYAGDVDVGKKKADISYMKFGELEGVRKFTWQLNPSEAYSLDPNEPERREKHLSIKRSH”: the “soluble on expression in E. coli” value was “not soluble”.
The entry for “MSGETTRLTEPQLRELAARGAAELDGATATDMLRWTDETFGDIGGAGGGVSGHRGWTTCNYVVASNMADAVLVDLAAKVRPGVPVIFLDTGYHFVETIGTRDAIESVYDVRVLNVTPEHTVAEQDELLGKDLFARNPHECCRLRKVVPLGKTLRGYSAWVTGLRRVDAPTRANAPLVSFDETFKLVKVNPLAAWTDQDVQEYIADNDVLVNPLVREGYPSIGCAPCTAKPAEGADPRSGRWQGLAKTECGLHAS” is “soluble”.
Take “MSLAVNLTEKTAEQLPDIDGIALYTAQAGVKKPGHTDLTLIAVAAGSTVGAVFTTNRFCAAPVHIAKSHLFDEDGVRALVINTGNANAGTGAQGRIDALAVCAAAARQIGCKPNQVLPFSTGVILEPLPADKIIAALPKMQPAFWNEAARAIMTTDTVPKAASREGKVGDKHTVRATGIAKGSGMIHPNMATMLGFIATDAKVSQPVLQLMTQEIADETFNTITVDGDTSTNDSFVIIATGKNSQSEIDNIADPRYAQLKELLCSLALELAQAIVRDGEGATKFITVRVENAKTRDEARQAAYAVARSPLVKTAFFASDPNLGRLLAAIGYAGVADLDTDLVEMYLDDILVAEHGGRAASYTEAQGQAVMSKAEITVRIKLHRGQAAATVYTCDLSHGYVSINADYRSEGHHHHHH”: the “soluble on expression in E. coli” value is given as “soluble”.
For the sequence “GPPSGKTYMGWWGHMGGPKQKGITSYAVSPYAQKPLQGIFHNAVFNSFRRFKSQFLYVLIPAGIYWYWWKNGNEYNEFLYSKAGREELERVNV”, the “soluble on expression in E. coli” value was “soluble”.
“MSLTENKGTPEVGWSFDTRYTDLPSMMFSNVEPEPVEAPKLVILNDSLAQSLGLDPVALQHQNSIAVLAGNEVPKGAAPLAQAYAGHQFGHFTMLGDGRAILLGEQITPNGERFDIQLKGSGRTPYSRQGDGRAALGPMLREYIISEAMHALGIPTTRSLAVVTTGESVFRETVLPGAILTRVAASHIRVGTFQFVANAGSEEELKALADYTLARHFPEVEADRENRYLALLQKVIKRQAELIAKWQLVGFIHGVMNTDNMTISGETIDYGPCAFMDVYDPETVFSSIDTRGRYAYGNQPRIGAWNLARFAEALLPLLADDQDEAIKLAEAEISNYAEQFEHHWLNGMRAKLGLFNEESEDLSLIKDLLEVMHKHKADFTNTFRALTFDEQEETGLHDKLEFTEWHERWQARLGRQEQTKDDSHNLMKMSNPAVIPRNHRVEEALEAAVEQEDYQVMERLLKVLANPFAHSPEQKAYAKLPAPCAIPYRTYCGTEGHHHHHH”: the “soluble on expression in E. coli” value was “not soluble”.
For the sequence “MSLEKSSRINGGKMNREEVKDSVLLGDSLEIMRRIDDCIYDLIFLDPPYYLQMTPKRLKRWNNRSVPQTVREYWDAFPSFEAYDSFISSVLKEAKRLMSDTSTIWAIGTYHNIFRIGKIMQDMGFWILNDVVWIKTNPMPNWLGVRFTNSTETLIWATKGKEQKNYTYNRNLAKEFGLGKTANNVWVMKTSRGNERVRDENRKSVHPAQKPLELMKRIILSSTKEGDLILDPFAGVGTTGVAASMLGRNFTLIEKDPVYYRAMLSRFSRFGIRYTEKIEGHHHHHH”, the “soluble on expression in E. coli” value is on record as “not soluble”.
Next, “MGSDKIHHHHHHMQIDKQQVGNRIHQLRIAAGLSMAKLASAIGLAGKSTINDWEKGRTLANADRLAKVAAYFDVSTNYLLYGSLTEYVTAVFQNGGLNHSEFNVLLWEYVDLTTTNPNILSSDLFSSASQTEQGVSDPTKIAAALITPTINNAIRQIVPEIVQHYQQTTTYPEPQAVIQAGCYVFRHRIQIIRRTFTGKYNRIVRLLDNVDLYEKLQPDDDLKAYLNQTTGPKTQVQNGYSLDEKYQRQMNKVITEFHQALNRINDAYQAELMACGQGQAHSAAD”: “not soluble”; “SEQDKWKTSAQLWQNLDEETIRALWNVQGQLNKLEEERDKAIEEIERQFLESSRPLYEERQRICSLVDRFWFHVLCSHPYTGTKMTNKDRTVLQHLEDVFFTEIENCMQGYQINLKFSPNDYIEDEIIWKQVKYVDDLQGWKGAASGIRWKRQDSIIDPDNEFFSDGEEVLQLTEKGNTVAKLQRKARSLLSWFETEDVTDNLKDVFYEDIWQHCIDWFFARDNASIEEFPVTMEGEQEDIVMID”: “soluble”.
For the sequence “STEKEKMIAGELYRSADETLSRDRLRARQLIHRYNHSLAEEHTLRQQILADLFGQVTEAYIEPTFRCDYGYNIFLGNNFFANFDCVMLDVCPIRIGDNCMLAPGVHIYTATHPIDPVARNSGAELGKPVTIGNNVWIGGRAVINPGVTIGDNVVVASGAVVTKDVPDNVVVGGNPARIIKKL”, the “soluble on expression in E. coli” value was “soluble”.
Next, “MACFLARFQFISPDSPATKAVTLQIKRSGQDMYACITGHSYSAPVFTVECKLKPDAEWVRDCMASFKEQMEAEGFLLNEGTSESTLPAQPAKKADLTLHDISAFFHLPVKAAASCLGVSQTYLKILCRRLGIDRWPYRKVASVKKHM”: “not soluble”.
